Test results taken from article PMC4177580, “Diverse functional evolution of serine decarboxylases: identification of two novel acetaldehyde synthases that uses hydrophobic amino acids as substrates” (BMC Plant Biology, 2014).

What was measured:
[1] = target: T1, SlAAAD (Solanum lycopersicum, UniProt Q1KSC6); assay: HPLC-EC decarboxylation assay; assay type: biochemical; conditions: 5 mM substrate, 20 mM HEPES pH 7.5, 25°C, 10 min
T1 construct: gene AADC1A; recombinant from bacterial expression plasmid pTYB12 (IMPACT-CN)
T1 sequence (Q1KSC6 1-471): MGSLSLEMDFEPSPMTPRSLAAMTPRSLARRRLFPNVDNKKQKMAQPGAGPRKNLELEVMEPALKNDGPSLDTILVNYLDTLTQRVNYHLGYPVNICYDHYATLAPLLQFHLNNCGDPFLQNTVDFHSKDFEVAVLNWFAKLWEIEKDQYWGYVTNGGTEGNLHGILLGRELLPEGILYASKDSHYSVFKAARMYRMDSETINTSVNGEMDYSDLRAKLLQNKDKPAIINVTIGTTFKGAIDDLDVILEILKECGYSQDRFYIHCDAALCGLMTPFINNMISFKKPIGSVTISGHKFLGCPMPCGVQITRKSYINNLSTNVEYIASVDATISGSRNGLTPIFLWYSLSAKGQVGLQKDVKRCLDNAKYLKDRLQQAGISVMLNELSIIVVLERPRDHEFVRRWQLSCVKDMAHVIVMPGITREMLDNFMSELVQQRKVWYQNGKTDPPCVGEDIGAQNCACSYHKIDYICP

[2] = target: T2, AtSDC (Arabidopsis thaliana, UniProt Q9MA74); assay: HPLC-EC decarboxylation assay; assay type: biochemical; conditions: 5 mM substrate, 20 mM HEPES pH 7.5, 25°C, 10 min
T2 construct: gene SDC; recombinant from bacterial expression plasmid pTYB12 (IMPACT-CN)
T2 sequence (Q9MA74 1-482): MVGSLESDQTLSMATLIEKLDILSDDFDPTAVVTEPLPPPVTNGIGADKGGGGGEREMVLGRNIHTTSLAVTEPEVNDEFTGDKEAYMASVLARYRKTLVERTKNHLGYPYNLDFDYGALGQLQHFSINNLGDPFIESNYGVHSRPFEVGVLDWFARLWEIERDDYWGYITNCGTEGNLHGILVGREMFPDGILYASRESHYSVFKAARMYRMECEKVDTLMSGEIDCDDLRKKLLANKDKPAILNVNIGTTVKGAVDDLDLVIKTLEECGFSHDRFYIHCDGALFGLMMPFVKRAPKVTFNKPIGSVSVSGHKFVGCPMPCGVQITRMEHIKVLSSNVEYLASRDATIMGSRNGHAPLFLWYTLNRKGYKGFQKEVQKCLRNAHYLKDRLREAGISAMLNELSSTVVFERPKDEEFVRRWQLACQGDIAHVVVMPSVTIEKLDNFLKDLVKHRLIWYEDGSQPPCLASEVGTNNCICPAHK

[3] = substrate: CSCC[C@H](N)C(=O)O; assay: peroxide assay (Pierce Quantitative Peroxide Assay Kit); assay type: biochemical, Cicer arietinum; conditions: 20 mM HEPES pH 7.5, 25°C, 5 min, hyperbolic regression
Text: (§1) peroxide assay (Pierce Quantitative Peroxide Assay Kit) on CaAAS

[4] = substrate: N[C@@H](Cc1c[nH]c2ccccc12)C(=O)O; assay: as above; assay type: biochemical, Cicer arietinum; conditions: 20 mM HEPES pH 7.5, 25°C, 5 min, hyperbolic regression
Text: as §1

[5] = substrate: N[C@@H](Cc1ccccc1)C(=O)O; assay: as above; assay type: biochemical, Cicer arietinum; conditions: 20 mM HEPES pH 7.5, 25°C, 5 min, hyperbolic regression
Text: as §1

[6] = substrate: CC(C)C[C@H](N)C(=O)O; assay: purified protein; conditions: 20 mM HEPES pH 7.5, 25°C, 5 min, hyperbolic regression
[7] = substrate: CSCC[C@H](N)C(=O)O; assay: peroxide assay (Pierce Quantitative Peroxide Assay Kit); assay type: biochemical, Medicago truncatula; conditions: 20 mM HEPES pH 7.5, 25°C, 5 min, hyperbolic regression
Text: (§2) peroxide assay (Pierce Quantitative Peroxide Assay Kit) on MtAAS

[8] = substrate: N[C@@H](Cc1c[nH]c2ccccc12)C(=O)O; assay: as above; assay type: biochemical, Medicago truncatula; conditions: 20 mM HEPES pH 7.5, 25°C, 5 min, hyperbolic regression
Text: as §2

[9] = substrate: N[C@@H](Cc1ccccc1)C(=O)O; assay: as above; assay type: biochemical, Medicago truncatula; conditions: 20 mM HEPES pH 7.5, 25°C, 5 min, hyperbolic regression
Text: as §2

In the case of `N[C@@H](Cc1ccccc1)C(=O)O` [phenylalanine], the HPLC-EC decarboxylation assay [1] is reported as “SlAAAD decarboxylation assay demonstrated activity towards tyrosine, dopa, phenylalanine and tryptophan”.

`N[C@@H](CO)C(=O)O` [serine] was tested, and the HPLC-EC decarboxylation assay [2] was “AtSDC only has activity towards serine”.

`N[C@@H](Cc1ccc(O)cc1)C(=O)O` [tyrosine] was tested, and the HPLC-EC decarboxylation assay [1] was “SlAAAD decarboxylation assay demonstrated activity towards tyrosine, dopa, phenylalanine and tryptophan”.

B1: CaAAS (Cicer arietinum) (protein)
chain: MGSLEGNNMLSMVVSNAKLAREEERQENINITNTNLTINQCIGETDANLKAIITHYVDTLTYSSLRNLGYPTNQDFNYDALASLFHFHLNNAGDPFVGSSFSLNSTKFEVGVLDWFAELWEIEKSDYWGYVTTGGTEGNLHGILVGREQFPDGILYTSQDSHYSIFKIARMYRMECVKVGSLLSGEIDCVELEASLLAHKDKPAIINLNIGTTMKGGIDDLDIVIQTLKKCGFTRDRFYIHCDGALFGIMLPFIKQAQRISFKKPIDSVTISGHKFLGCPSPCGVVITRLKYINELSRDVEIIASRDATITGSRCGHAPILLWYALKKKGLIGLKNEVHECIINARYLLDQLRDAGIGAMLNEFSNIVVFEKPLDDNFTRRWNLATKGNIAHVVVLMHVTKEMLDTFVREFIQKRSIWYKHGHFQPLCIANHVGSTNCVCSIHKLS
notes: recombinant from bacterial expression plasmid pTYB12 (IMPACT-CN)
B1 was tested, and the Km [3] was 1620 ± 200 µM, the kcat [3] was 0.351 ± 0.012 s⁻¹ and the kcat/Km [3] was 220 ± 10 M⁻¹ s⁻¹. It also gave a Km [4] of 2800 ± 700 µM, a kcat [4] of 0.187 ± 0.016 s⁻¹ and a kcat/Km [4] of 70 ± 100 M⁻¹ s⁻¹. For the same molecule, the Km [5] was 90 ± 10 µM, the kcat [5] was 0.595 ± 0.009 s⁻¹ and the kcat/Km [5] was 6600 ± 650 M⁻¹ s⁻¹. The Km [6] was 4600 ± 400 µM, the kcat [6] was 0.467 s⁻¹ and the kcat/Km [6] was 100 M⁻¹ s⁻¹.

B2: MtAAS (Medicago truncatula) (protein)
chain: MAMTFIPDAELLPTVVVNAKLSREEKHDEENIIGLTNLDVTKSIGETDANLDAIIAHYAQTITKYNMRNLGYPTNQDFNYEALAPLLQFHLNNAGDPFLGSSFSLNSMAFEVSVLDWFAKLWEIEKNEYWGYVTTGGTEGNLHGILAGREQLPDGILYTSQDSHYSIAKIAKMYRMKCVKVDSLLSGEIDCVQLEASLLAHKDKPAIINLNIGTTLKGGIDDLDLVIQTLNKCGFTRDRFYIHCDGALFGIMLPFIKQAPRISFKKPIDSVTISGHKFLGCPSPCGVLITRLKYMNALSRDVDIIASRDATITGSRCGHAPIFLWYALKKRGLIGLENEVHECIMKAHYLLNLLRDAGIGAMLNKFSNIVVFERPLDDHFTRRWNLASNKNTAHVVVLKHVTVEMLDSFVREFTEKQSIWYKDEQFQPPCIANDVGSRNCACSIHNLSRNC
notes: as for B1
B2 gave a Km [6] of 7600 ± 700 µM, a kcat [6] of 0.197 s⁻¹ and a kcat/Km [6] of 30 M⁻¹ s⁻¹. The Km [7] was 1900 ± 200 µM, the kcat [7] was 0.144 ± 0.006 s⁻¹ and the kcat/Km [7] was 80 ± 10 M⁻¹ s⁻¹. The Km [8] was 1700 ± 300 µM, the kcat [8] was 0.125 ± 0.008 s⁻¹ and the kcat/Km [8] was 70 ± 10 M⁻¹ s⁻¹. For the same molecule, the Km [9] was 20 ± 10 µM, the kcat [9] was 0.358 ± 0.005 s⁻¹ and the kcat/Km [9] was 17900 ± 2290 M⁻¹ s⁻¹.
